{
  "source": "patent US20200002405A1",
  "binders": {"B1": {"name": "25.10C (antibody, V domains shown)", "VH": "QVQLQESGGGLVKPGGSLRLSCTASGFNFNKYNMNWVRQAPGKGLEWVSSISALSTYIYYADSLKGRFTVSRDNAKNSLFLQMNSLRDDDTAVYYCAREIRRASTWSADLWGRGTLVTVSS", "VL": "DIQMTQSPSSLSASVGDRVIITCRASQSISSSLNWYQQKPGKAPKLLIYAAVNLETGVPSRFSGSGFGTDFTLAISNVQPEDFATYYCQQSDTRTFGRGTKLDVKR"}, "B2": {"name": "19.7E (antibody, V domains shown)", "VH": "EVQLVESGGGLVRPGGSLRLSCAASGFSFSSYSMHWVRHVPGKGLVWVSYINSDGSTKIYADSVKGRFSISRDNAKNKLYLQMDSLRVEDTAVYSCVRLVHYDWSPFVWGQGTLVTVSS", "VL": "EIVLTQSPSTLSASVGDRVTITCRASQSINNWLAWYQEKPGKAPKLLINKASSLESGVPSRFSGSGSGTEFTLTITSLQPDDFATYYCQQYNSNSWTFGQGTKVDMKR"}},
  "test_in_all_cases": "cell-based or functional assay",
  "key": {"[1]": {"target": "LASV Pinneo (lineage I) glycoprotein (Lassa virus, strain Pinneo)"}, "[2]": {"target": "LASV A19 (lineage II) glycoprotein (Lassa virus, strain A19)"}, "[3]": {"target": "LASV Josiah (lineage IV) glycoprotein, full-length GP (Lassa virus, Josiah strain) (UniProt P08669)", "sequence (P08669 2-491)": "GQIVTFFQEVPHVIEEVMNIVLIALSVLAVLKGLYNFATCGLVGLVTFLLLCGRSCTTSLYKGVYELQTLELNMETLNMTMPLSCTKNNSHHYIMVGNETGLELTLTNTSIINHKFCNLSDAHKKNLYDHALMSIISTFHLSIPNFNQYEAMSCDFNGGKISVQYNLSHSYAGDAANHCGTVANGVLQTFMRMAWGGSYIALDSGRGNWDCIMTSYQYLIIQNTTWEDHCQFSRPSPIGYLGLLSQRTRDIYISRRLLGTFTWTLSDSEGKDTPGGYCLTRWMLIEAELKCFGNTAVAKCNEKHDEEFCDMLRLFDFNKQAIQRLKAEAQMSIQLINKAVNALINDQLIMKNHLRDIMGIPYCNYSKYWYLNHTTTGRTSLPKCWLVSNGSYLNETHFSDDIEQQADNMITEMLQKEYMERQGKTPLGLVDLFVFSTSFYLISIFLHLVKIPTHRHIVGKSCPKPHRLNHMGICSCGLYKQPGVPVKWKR"}, "[4]": {"target": "LASV 237 (lineage III) glycoprotein (Lassa virus, strain 237)"}, "[5]": {"target": "LASV Josiah (lineage IV) glycoprotein, full-length GP (Lassa virus, Josiah strain) (UniProt P08669)", "remark": "listed apart in the source"}},
  "note": "Like-named read-outs stand apart in the source and are kept apart here.",
  "data": [
    {"binder": "B1", "values": [
      {"measurement": "IC50 (neutralization)", "setting": "[1]", "value": 0.226, "unit": "µg/mL"},
      {"measurement": "IC80 (neutralization)", "setting": "[1]", "value": 0.564, "unit": "µg/mL"},
      {"measurement": "IC50 (neutralization)", "setting": "[2]", "value": 0.104, "unit": "µg/mL"},
      {"measurement": "IC80 (neutralization)", "setting": "[2]", "value": 0.364, "unit": "µg/mL"},
      {"measurement": "IC50 (neutralization)", "setting": "[3]", "value": 0.094, "unit": "µg/mL"},
      {"measurement": "IC80 (neutralization)", "setting": "[3]", "value": 0.174, "unit": "µg/mL"},
      {"measurement": "IC50 (neutralization)", "setting": "[4]", "value": 0.058, "unit": "µg/mL"},
      {"measurement": "IC80 (neutralization)", "setting": "[4]", "value": 0.18, "unit": "µg/mL"},
      {"measurement": "IC50 (neutralization)", "setting": "[5]", "value": 0.16, "unit": "µg/mL"},
      {"measurement": "IC80 (neutralization)", "setting": "[5]", "value": 0.247, "unit": "µg/mL"}
    ]},
    {"binder": "B2", "values": [
      {"measurement": "IC50 (neutralization)", "setting": "[1]", "value": 1.56, "unit": "µg/mL"},
      {"measurement": "IC80 (neutralization)", "setting": "[1]", "value": 3.27, "unit": "µg/mL"},
      {"measurement": "IC50 (neutralization)", "setting": "[2]", "value": "> 20", "unit": "µg/mL"},
      {"measurement": "IC80 (neutralization)", "setting": "[2]", "value": "> 20", "unit": "µg/mL"},
      {"measurement": "IC50 (neutralization)", "setting": "[3]", "value": 5.91, "unit": "µg/mL"},
      {"measurement": "IC80 (neutralization)", "setting": "[3]", "value": "> 20", "unit": "µg/mL"},
      {"measurement": "IC50 (neutralization)", "setting": "[4]", "value": 1.06, "unit": "µg/mL"},
      {"measurement": "IC80 (neutralization)", "setting": "[4]", "value": 15, "unit": "µg/mL"},
      {"measurement": "IC50 (neutralization)", "setting": "[5]", "value": 1.19, "unit": "µg/mL"},
      {"measurement": "IC80 (neutralization)", "setting": "[5]", "value": "> 10", "unit": "µg/mL"}
    ]}
  ]
}
